Measurements reported in article PMC11267843, “Transcription factor binding specificities of the oomycete Phytophthora infestans reflect conserved and divergent evolutionary patterns and predict function”.

Assays:
PITG_04701 HSF = PITG_04701 HSF (Phytophthora infestans, UniProt D0N1U7 1-190); experiment: EMSA; conditions: protein: recombinant, tags: 6xHis, GST (N- or C-terminal, per PBM vectors), chain copies: 3, blunt
PITG_08807 2R-Myb = PITG_08807 2R-Myb (Phytophthora infestans, UniProt D0ND89 1-188); experiment: EMSA; self-competition with unlabeled DNA; conditions: protein: recombinant; tags: 6xHis; GST (N- or C-terminal, per PBM vectors); label: Cy5 (probe); blunt

B1: HSF two-site (wild-type motif) (dsDNA)
DNA 1: TAAATATAGCACGCTTCTAGAAACTGCAGCACAACA
DNA 2: TGTTGTGCTGCAGTTTCTAGAAGCGTGCTATATTTA
binding result (PITG_04701 HSF; label: Cy5 (probe)): binds

B2: HSF three-site (dsDNA)
DNA 1: TAAATATAGCACGCGAATATTCTAGAAACTGCAGCACAACA
DNA 2: TGTTGTGCTGCAGTTTCTAGAATATTCGCGTGCTATATTTA
binding result (PITG_04701 HSF; label: Cy5): binds

B3: Myb wild-type motif (dsDNA)
DNA 1: CTACACTATCATTCTCCGTTACGTCCTACTGTATTGG
DNA 2: CCAATACAGTAGGACGTAACGGAGAATGATAGTGTAG
binding result (PITG_08807 2R-Myb): binds
